Source: patent US20180186885A1 (University of California, published 2018)

B1: FZD7-Fab-1791 (Fab)
light: DIVMTQSPKSMSMSVGERVTLRCKASENVLNYVSWYQQKPEQSPKLLIYGASNRYTGVPDRFTGSGSATDFTLTISSVQAEDLADYHCGQSYRYPTFGAGTKLELKRADAAPTVSIFPPSSEQLTSGGASVVCFLNNFYPKDINVKWKIDGSERQNGVLNSWTDQDSKDSTYSMSSTLTLTKDEYERHNSYTCEATHKTSTSPIVKSFNRNESYPYDVPDYAS
heavy: EVQPVESGGGLVQPKGSLKLSCAASGFTFNTYAMHWVRQAPGKGLEWVARIRSKSNNYAKNYDDSVKDRFTISRDDSQSMLYLQMNNLKTEDTAMYYCVRENYGGRFDYWGQGTTLTVSSAKTTPPSVYPLAPGSAAQTNSMVTLGCLVKGYFPEPVTVTWNSGSLSSGVHTFPAVLQSDLYTLSSSVTVPSSTWPSETVTCNVAHPASSTKVDKKIVPRDSHHHHHHH
B2: FZD7-Fab-1291 (Fab)
light: DVVMSQSPSSLAVSVGEKVTMSCKSSQSLLYSSNQKNYLAWYQQKPGQSPKLLIYWASTRESGVPDRFTGSGSGTDFTLTISSVKAKDLAVYYCQQYYSYPTFGGGTKLEIKRADAAPTVSIFPPSSEQLTSGGASVVCFLNNFYPKDINVKWKIDGSERQNGVLNSWTDQDSKDSTYSMSSTLTLTKDEYERHNSYTCEATHKTSTSPIVKSFNRNESYPYDVPDYAS
heavy: EVQLVESGGGLVKPGGSLKLSCAASGFTFSSYAMSWVRQTPEKRLEWVATISDGGSYTRYPDKLKGRFTISRDNAKNNLYLQMSHLKSEDTAMYYCARVGGRRDYFDYWGQGTTLTVSSAKTTPPSVYPLAPGSAAQTNSMVTLGCLVKGYFPEPVTVTWNSGSLSSGVHTFPAVLQSDLYTLSSSVTVPSSTWPSETVTCNVAHPASSTKVDKKIVPRDCHHHHHHH
notes: The entries as printed end in tag-like residues

Assays:
[1] = biological target: T1, mouse Fzd7 P188L (mouse, UniProt Q61090 33-572); test: reactivity of Fab with mouse Fzd7 point mutants (FIG. 4C-D)
T1 construct: also called MEF-Fzd7P188L

[2] = biological target: FZD7 protein on human cancer cells (OVCAR-4, MDA-MB-231, primary tumour tissue) (human, UniProt O75084 33-574); test: cell-based or functional assay

Row | Binder | binding result [1] | fold decrease in TOP-Flash Wnt reporter (luciferase) activity in MDA-MB-231 cells treated with Wnt3a (0-5 nM), FZD7-Fab-1791 at 200 nM [2] [fold]
1 | B1 | binds | ~3
2 | B2 | binds | 
